Results reported in the DeepSol protein solubility set.

Assay: soluble on expression in E. coli; label from the status in PepcDB or PDB records

Sequence | soluble on expression in E. coli
MSMENFAQLLEESFTLQEMNPGEVITAEVVAIDQNFVTVNAGLKSESLIDVAEFKNAQGEIEVKVGDFVTVTIESVENGFGETKLSREKAKRAADWIALEEAMENGNILSGIINGKVKGGLTVMISSIRAFLPGSLVDVRPVKDTSHFEGKEIEFKVIKLDKKRNNVVVSRRAVLEATLGEERKALLENLQEGSVIKGIVKNITDYGAFVDLGGIDGLLHITDLAWRRVKHPSEVLEVGQEVEAKVLKFDQEKQRVSLGMKQLGEDPWSGLTRRYPQATRLFGKVSNLTDYGAFVEIEQGIEGLVHVSEMDWTNKNVHPSKVVQLGDEVEVMILEIDEGRRRISLGMKQCQANPWEEFAANHNKGDKISGAVKSITDFGVFVGLPGGIDGLVHLSDLSWTESGEEAVRKYKKGEEVEAVVLAIDVEKERISLGIKQLEGDPFGNFISVNDKGSLVKGSVKSVDAKGAVIALSDEVEGYLPASEFAADRVEDLTTKLKEGDEVEAVIVTVDRKNRSIKLSVKAKDAKESREALNSVNAAANANAGTTSLGDLLKAKLSGEQELEHHHHHH | not soluble
GSMEPAMEPETLEARINRATNPLNKELDWASINGFCEQLNEDFEGPPLATRLLAHKIQSPQEWEAIQALTVLETCMKSCGKRFHDEVGKFRFLNELIKVVSPKYLGSRTSEKVKNKILELLYSWTVGLPEEVKIAEAYQMLKKQGIVKS | soluble
MKRLIGILLCNLFILTACSASVDKTSNSTKTTDYKIENGETLKVPEKPKRVAVLTGFYVGDFIKLGIKPIAVSDITKDSSILKPYLKGVDYIGENDVERVAKAKPDLIVVDAMDKNIKKYQKIAPTIPYTYNKYNHKEILKEIGKLTNNEDKAKKWIEEWDDKTRKDKKEIQSKIGQATASVFEPDEKQIYIYNSTWGRGLDIVHDAFGMPMTKQYKDKLQEDKKGYASISKENISKYAGDYIFLSKPSYGKFDFEKTHTWQNIEAVKKGHVISYKAEDYWFTDPITLEHLRSKLKKEILNKK | not soluble
MSLSKKRAGAMKNYGAGDQFKATKALTFTILHNDMPTYPMKRDWLFWKEVTERTGVTLKPTSVPASDYDKKRSLLIGAGDAPLLIPKTYPGQETAFVSSGAILPVSEYVRLMPNFRAKVEKWGLEGDLDSIRQADGNYYVLPGLHEKVKSGYSLSFRTDVLKKHGLDLPTTWDQVYDVLKALKAAYPDVYPFSDRWGQPTPGGALLNYLGPAFGTKAGWSYANTAWDTKARKYVFTGATDEYRQMLEYLRKLVAEKLMDPESFTQSDDDAVRKLLSGKSFVISANPQELVQNYRYNLGKQVKGATIEMIPVPIGPTGEVIVGSRLENGLMVAGRAAEGDSFVAMMQFVDWLWYSDGGQEFAKYGVEGVTYTSSGAGRYKVADGISYMGSDPSAPKDLQKDYGFTNGEFAYGGSWALVSSSFSPDEKAFQDAMAGRKLLPVDPAHPLKADEQEQATLWDTPLKDHVTQNTLKFALGKRPMSEWDAYLAELKAKNMQRYIDLHNTAYERFKKEHEGHHHHHH | soluble
MAHHHHHHMYAIADTDDILIRSNPCRLSVNGVHISVCNEDVVGDMRDRMVERWPTADGSLRRVVEALVNGRLYVPLYSLPVATADLKHLPHLRMDYVPSQNELLEIKPAAAALASSTATKGDRRGNADGSDATTSTSGASSSRGWETVFSVAEQPSTDMAAWLQHKVKRAKLEDAAGDNEEGDAASAPGGPVTPSTPTASSKTEYLPHIMFLPSTRPQFATVTHQSEEVDGADIDSAESASGVLVVNQEVWSTRSSPKFELRVAEVTIPNTDLVLRRGATSTNGVTCGVLHIYSA | soluble
MPKSNRRIVRARDSKGRFLPGKKAKSVASKSRSRSRSRSVVSRKTTRTNSLTRRRSSTKAPSSARQSRSRSRSRSRSRSKSRSTSSRRSRSRSARRVSFKRGRPASFAMKSPEEKTAAKKTAAKIILRVD | not soluble
MSELSGKGCEIIVPFEERLPVRDIEKSIIKKYRKNLWSKFMKAIRDYKLVEEGDKIAVAISGGKDSILMAKMFQELKKHGQVNFDVEFIAMDPGYHANIRQLLIDNCEYLNIPIHLFDSRIFEIADEIAKDYPCYMCARMRRGALYSKAEELGCNKLALGHHYDDVIETTMLNLLCAGNFKTMLPKLNSTNFEGIKIIRPLYYIREEHIIRFIQNSGIWPLNCAC | not soluble
SDEFDALRIKWATLLTGGPALDPADSDIAARTDKLAQDANDYWEDMDLSSSRTYIWYALRGNGTSDNVNAVYERLRTMALAATTVGSSLYGNADLKEDILDALDWLYVNSYNSTRSRSAYNWWHWQLGIPMSLNDIAVLLYDDISAARMATYMDTIDYFTPSIGLTGANRAWQAIVVGVRAVIVKDAVKLAAARNGLSGTGIFPYATGGDGFYADGSFVQHTTFAYTGGYGSSVLETTANLMYLLSGSTWSVSDPNQSNVWQWIYEAYRPLLYKGAMMDMVRGREISRSYAQDHAVGHGIVASIVRLAQFAPAPHAAAFKQIAKRVIQEDTFSSFYGDVSTDTIRLAKAIVDDPSIAPAAAPNLYKQYAAMDRAVLQRPGFALGLALYSTRISSYESINSENGRGWYTGAGATYLYNQDLAQYSEDYWPTVDAYRIPGTTVASGTPIASGTGTSSWTGGVSLAGQYGASGMDLSYGAYNLSARKSWFMFDDEIVALGSGISSTAGIPIETVVDNRKLNGAGDNAWTANGAALSTGLGVAQTLTGVNWVHLAGNTADGSDIGYYFPGGATLQTKREARTGTWKQINNRPATPSTAVTRNYETMWIDHGTNPSGASYGYVLLPNKTSAQVGAYAADPAIEIVVNTSGVQSVKEKTLGLVGANFWTDTTQTADLITSNKKASVMTREIADERLEASVSDPTQANNGTIAIELARSAEGYSADPGITVTQLAPTIKFTVNVNGAKGKSFHASFQLG | soluble
GADNNKWKPLFGKNLENANYNPEVWSETDGVLGAVKDESIWTKDEYENFELDLDFKTDVGTNSGVVVYCTDTKDWIPNSVEIQIADDHCEKWGNGKPYEKCGAIYGHLGAVQDKVVKKPGEWNHMRIKCAGQHIMVILNGKKVTEMDMSKWTSGTKNPDGSDIPSWLPKPFAELPTKGFIGLQGKHGDSLIWFRNIKIRSL | soluble
MRAVVLVPFLKQQRENRDAASAPAAPGRSVEAKLEEAKGLALAIDLEVTQGLVVPVNQPRPATLFGTGKIEEIGHLLDETNSGLVIVDHPLTPVQQRNLEKQWNAKVIDRTGLILEIFGRRASTKEGTLQVDLAHLNYQKGRLVRSWTHLERQRGGAGFMGGPGETQIEADRRLLQDRIVKLEKELEQVVRTRQLHRAKRRKVPHPIVALVGYTNAGKSTLFNRITGAGVLAEDMLFATLDPTLRRMKLPHGRTVILSDTVGFISDLPTHLVAAFRATLEEVLEA | not soluble
MGSDKIHHHHHHMENQEKPLSVDEEYDLWKSNVPLMYDFVSETRLTWPSLTVQWLPTPVQELDGGFIKQELIIGTHTSGEEENYLKFAEINLPKEILSNEDPQEEAGEEYQSSLPAPRSNIRITAKYEHEEEITRARYMPQDPNIVATINGQGTVFLYSRSEGLQSTLKFHKDNGYALSFSTLVKGRLLSGSDDHTVALWEVGSGGDPTKPVRTWNDLHSDIINDNKWHNFNKDLFGTVSEDSLLKINDVRANNTTIDTVKCPQPFNTLAFSHHSSNLLAAAGMDSYVYLYDLRNMKEPLHHMSGHEDAVNNLEFSTHVDGVVVSSGSDNRLMMWDLKQIGAEQTPDDAEDGVPELIMVHAGHRSSVNDFDLNPQIPWLVASAEEENILQVWKCSHSLPIVGGPPKVNKDIIS | not soluble
KGSAFAPGITAGMGVKYKLKPRINVGIEYSFTGLLTDALDALTDKSVWLEDPYKINDSWVKNKDATGALVLRITYDFGLRKTFCNKQ | not soluble
MGSDKIHHHHHHMMAVLHRSSDIIAATICRILIPQFYSDNTVPINGNYSCIFLLSYMFPLDSPLLADLYKKYRSRLISRIARLTGCRETAADLAQDAYMRLLDQTGVACPSNPAAYLFRIGRNLAIDHQRRPDFRQHDETSFEEELPSSFSGLDQQAVYRQECEQLWTAIMELPRPVSRALVLSVIEGVSQAAIAEELGVTERTVRRYISKGMAHCQRRLRNPLPPARYDR | not soluble
MAHHHHHHMARIPPLVVCGPSGVGKGTLIKKVLSEFPSRFRFSISCTTRNKREKETNGVDYYFVDKDDFERKLKEGQFLEFDKYANNFYGTLKSEYDLAVGEGKICLFEMNINGVKQLKESKHIQDGIYIFVKPPSIDILLGRLKNRNTEKPEEINKRMQELTREMDEADKVGFNYFIVNDDLARTYAELREYLLGSYPQLRGG | soluble
MAHHHHHHNEKDIGKLKKTFEAFDHNGDGVLTISEIFQCLKLNDNELDTELYFLLKQLDTDGNGLIDYTEFLAACLDHSIFQQDVICRNAFNVFDLDGDGVITKEELFNILSFSAVQVSFSKEIIENLIKEVDANNDGFIDYDEFYKMMTGAK | soluble
MPWRNKEASSPSSANPPLEALQSPSFRGNMADKLKDPSTLGFLEAAVKISHTSPDIPAEVQMSVKEHIMRHTRLQRQTTEPASSTRHTSFKRHLPRQMHVSSVDYGNELPPAAEQPTSIGRIKPELYKQKSVDGEDAKSEATKSCGKINFSLRYDYETETLIVRILKAFDLPAKDFCGSSDPYVKIYLLPDRKCKLQTRVHRKTLNPTFDENFHFPVPYEELADRKLHLSVFDFDRFSRHDMIGEVILDNLFEASDLSRETSIWKDIQYATSESVDLGEIMFSLCYLPTAGRLTLTVIKCRNLKAMDITGYSDPYVKVSLLCDGRRLKKKKTTIKKNTLNPVYNEAIIFDIPPENMDQVSLLISVMDYDRVGHNEIIGVCRVGITAEGLGRDHWNEMLAYPRKPIAHWHSLVEVKKSFKEGNPRL | not soluble
MIKLVFRYSPTKTVDGFNELAFGLGDGLPWGRVKKDLQNFKARTEGTIMIMGAKTFQSLPTLLPGRSHIVVCDLARDYPVTKDGDLAHFYITWEQYITYISGGEIQVSSPNAPFETMLDQNSKVSVIGGPALLYAALPYADEVVVSRIVKRHRVNSTVQLDASFLDDISKREMVETHWYKIDEVTTLTESVYK | soluble
MSTPIPPSSPPSTPTTRANNRTKSFSGTGTVATTACICGNVPIALSANTLADSLKVSPLYKQQDSARWNAAAQVYRTSRAVSPTLEEKEKFGFDNAYINQMISPKMSIPKTPISLEEIADMNRKRHEVEGGVIPSDDDVGPLELEAIAAVHELAHEVQDISVSEMLPRTSDLIFVNVKTQEGSPYTLELTMKGWRIASSHTDCMNGDYTKISLHTKYYRNARELLKFISPDHATRFNECVAQKLSKLAEVAVQ | not soluble
GMKVTNYQGATIDPYSKGLGMVPGTSIQLTDAARLEWNLLNEDVSLPAAVLYADRVEHNLKWMQAFVAEYGVKLAPHGKTTMAPQLFRRQLETGAWGITLATAHQVRAAYHGGVSRVLMANQLVGRRNMMMVAELLSDPEFEFFCLVDSVEGVEQLGEFFKSVNKQLQVLLELGVPGGRTGVRDAAQRNAVLEAITRYPDTLKLAGVELYEGVLKEEHEVREFLQSAVAVTRELVEQERFARAPAVLSGAGSAWYDVVAEEFVKASETGKVEVVLRPGCYLTHDVGIYRKAQTDIFARNPVAKKMGEGLLPALQLWAYVQSIPEPDRAIIGLGKRDSAFDAGMPEPARHYRPGNEAPRDIAASEGWEIFGLMDQHAYLRIPAGADLKVGDMIAFDISHPCLTFDKWRQVLVVDPAYRVTEVIETFF | soluble
MGSDKIHHHHHHMIIQRVVLNSRPGKNGNPVAENFRVEEFSLLDALNEGQVQVRTLYLSVDPYMRCKMNEDTGTDYLAPWQLAQVADGGGIGIVEESKHQKLAKGDFVTSFYWPWQTKAILDGNGLEKVDPQLVDGHLSYFLGAIGMPGLTSLIGVQEKGHISAGSNQTMVVSGAAGACGSLAGQIGHLLGCSRVVGICGTQEKCLFLTSELGFDAAVNYKTGNVAEQLREACPGGVDVYFDNVGGDISNTVISQMNENSHIILCGQISQYNKDVPYPPPLPPAVEAIRKERNITRERFTVLNYKDKFEPGILQLSQWFKEGKLKVKETVAKGLENMGVAFQSMMTGGNVGKQIVCISEDSSL | soluble
